Experimental data as given in US20220024981A1 (Novartis, published 2022).
Bridge positions count the residues as written; N and C are the ends. Square brackets hold non-standard residues; d marks the D form. Bip = N[C@@H](Cc1ccc(-c2ccccc2)cc1)C(=O)O; NMeA = CN[C@@H](C)C(=O)O

Biological target: T1, Human PCSK9 Alexa Fluor 647 (human, UniProt Q8NBP7 31-692, limits assumed, Alexa Fluor 647 label (site not stated))
T1 construct: Labelled tracer of the TR-FRET assay, 16 nM stock; also called proprotein convertase subtilisin/kexin type 9
T1 sequence (Q8NBP7 31-692 limits assumed): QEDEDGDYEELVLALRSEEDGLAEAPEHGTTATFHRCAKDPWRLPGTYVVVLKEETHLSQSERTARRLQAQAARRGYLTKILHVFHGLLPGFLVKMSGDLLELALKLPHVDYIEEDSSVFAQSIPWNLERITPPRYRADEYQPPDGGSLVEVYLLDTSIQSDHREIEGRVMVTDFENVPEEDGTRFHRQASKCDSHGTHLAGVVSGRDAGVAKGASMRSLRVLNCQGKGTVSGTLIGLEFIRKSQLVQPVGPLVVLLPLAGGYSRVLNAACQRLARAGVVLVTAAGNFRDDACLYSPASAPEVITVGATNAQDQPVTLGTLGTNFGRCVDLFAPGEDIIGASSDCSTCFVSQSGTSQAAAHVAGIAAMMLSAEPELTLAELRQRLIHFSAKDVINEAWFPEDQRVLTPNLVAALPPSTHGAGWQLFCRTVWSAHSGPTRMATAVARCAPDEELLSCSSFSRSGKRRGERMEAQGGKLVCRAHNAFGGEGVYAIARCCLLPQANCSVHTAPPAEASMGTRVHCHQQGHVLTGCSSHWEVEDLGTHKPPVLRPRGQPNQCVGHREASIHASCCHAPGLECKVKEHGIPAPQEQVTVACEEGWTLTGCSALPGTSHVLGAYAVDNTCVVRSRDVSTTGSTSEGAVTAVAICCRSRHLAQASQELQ
Experiment: TR-FRET competition: PCSK9-Alexa Fluor 647 vs LDLR ECD-Eu kryptate
Protocol: A Proxi plate-low volume assay plate was used for the assay. […] Following a 30 minute incubation, 5 uL of 4 nM Human LDLR extracellular domain-Europium Kryptate was added and the mixture was incubated for an additional 2 hours.
The TR-FRET signal was measured on an EnVision or PheraStar instrument with a 60 μs delay, 330 nm excitation and 665 nm emission (FRET), and 330 nm excitation and 615 nm (Europium). The FRET ratio (FRET/Europium) was used for calculations.

IC50: 1.4 nM
Maximum % inhibition: 49%
B1: Ac*-F-V-P-T-T-B-(N-Me)A-B-(N-Me)A-A-A-P-C*-NHEt (peptide)
peptide: {CH2CO}-FVPTT[Bip][NMeA][Bip][NMeA]AAPC-NHEt
modifications: thioether N-13
SMILES: CCNC(=O)[C@@H]1CSCC(=O)N[C@@H](Cc2ccccc2)C(=O)N[C@@H](C(C)C)C(=O)N2CCC[C@H]2C(=O)N[C@@H]([C@@H](C)O)C(=O)N[C@@H]([C@@H](C)O)C(=O)N[C@@H](Cc2ccc(-c3ccccc3)cc2)C(=O)N(C)[C@@H](C)C(=O)N[C@@H](Cc2ccc(-c3ccccc3)cc2)C(=O)N(C)[C@@H](C)C(=O)N[C@@H](C)C(=O)N[C@@H](C)C(=O)N2CCC[C@H]2C(=O)N1
notes: also called 3-4; Ex. No. 3-4
